Experimental data from patent US12679878B2, “CRF2 receptor agonists and their use in therapy” (SANOFI, priority 2020, dated 2026).
Starred links: 1 amine or outer side, 2 acyl side, 3 side chain; linkers in the order of their positions; H or OH if unused. Non-standard residues stand in square brackets, D forms with d. Groups on a side chain read outwards from the residue. No end group written: not given here. *: point of attachment. C18 diacid = O=C(O)CCCCCCCCCCCCCCCCC(=O)*; γGlu = O=C(O)[C@H](CCC(=O)[*:2])N[*:1]; AEEA = NCCOCCOCC(=O)O; Aib = CC(C)(N)C(=O)O

B1: peptide of SEQ ID NO: 126 (peptide)
peptide: IVLSLD[dV]PIKLK([AEEA-AEEA-γGlu-C18 diacid])QILLEQAKQK[Aib]QRAQAEKNKRILERV-NH2
modifications: N-terminus assumed
SMILES: CC[C@H](C)[C@H](N)C(=O)N[C@H](C(=O)N[C@@H](CC(C)C)C(=O)N[C@@H](CO)C(=O)N[C@@H](CC(C)C)C(=O)N[C@@H](CC(=O)O)C(=O)N[C@@H](C(=O)N1CCC[C@H]1C(=O)N[C@H](C(=O)N[C@@H](CCCCN)C(=O)N[C@@H](CC(C)C)C(=O)N[C@@H](CCCCNC(=O)COCCOCCNC(=O)COCCOCCNC(=O)CC[C@H](NC(=O)CCCCCCCCCCCCCCCCC(=O)O)C(=O)O)C(=O)N[C@@H](CCC(N)=O)C(=O)N[C@H](C(=O)N[C@@H](CC(C)C)C(=O)N[C@@H](CC(C)C)C(=O)N[C@@H](CCC(=O)O)C(=O)N[C@@H](CCC(N)=O)C(=O)N[C@@H](C)C(=O)N[C@@H](CCCCN)C(=O)N[C@@H](CCC(N)=O)C(=O)N[C@@H](CCCCN)C(=O)NC(C)(C)C(=O)N[C@@H](CCC(N)=O)C(=O)N[C@@H](CCCNC(=N)N)C(=O)N[C@@H](C)C(=O)N[C@@H](CCC(N)=O)C(=O)N[C@@H](C)C(=O)N[C@@H](CCC(=O)O)C(=O)N[C@@H](CCCCN)C(=O)N[C@@H](CC(N)=O)C(=O)N[C@@H](CCCCN)C(=O)N[C@@H](CCCNC(=N)N)C(=O)N[C@H](C(=O)N[C@@H](CC(C)C)C(=O)N[C@@H](CCC(=O)O)C(=O)N[C@@H](CCCNC(=N)N)C(=O)N[C@H](C(N)=O)C(C)C)[C@@H](C)CC)[C@@H](C)CC)[C@@H](C)CC)C(C)C)C(C)C
B2: peptide of SEQ ID NO: 134 (peptide)
peptide: IVLSLD[dV]PIKLK([AEEA-AEEA-γGlu-C18 diacid])QILLKQERQK[Aib]QREKAEKNKQILAQV-NH2
modifications: N-terminus assumed
SMILES: CC[C@H](C)[C@H](N)C(=O)N[C@H](C(=O)N[C@@H](CC(C)C)C(=O)N[C@@H](CO)C(=O)N[C@@H](CC(C)C)C(=O)N[C@@H](CC(=O)O)C(=O)N[C@@H](C(=O)N1CCC[C@H]1C(=O)N[C@H](C(=O)N[C@@H](CCCCN)C(=O)N[C@@H](CC(C)C)C(=O)N[C@@H](CCCCNC(=O)COCCOCCNC(=O)COCCOCCNC(=O)CC[C@H](NC(=O)CCCCCCCCCCCCCCCCC(=O)O)C(=O)O)C(=O)N[C@@H](CCC(N)=O)C(=O)N[C@H](C(=O)N[C@@H](CC(C)C)C(=O)N[C@@H](CC(C)C)C(=O)N[C@@H](CCCCN)C(=O)N[C@@H](CCC(N)=O)C(=O)N[C@@H](CCC(=O)O)C(=O)N[C@@H](CCCNC(=N)N)C(=O)N[C@@H](CCC(N)=O)C(=O)N[C@@H](CCCCN)C(=O)NC(C)(C)C(=O)N[C@@H](CCC(N)=O)C(=O)N[C@@H](CCCNC(=N)N)C(=O)N[C@@H](CCC(=O)O)C(=O)N[C@@H](CCCCN)C(=O)N[C@@H](C)C(=O)N[C@@H](CCC(=O)O)C(=O)N[C@@H](CCCCN)C(=O)N[C@@H](CC(N)=O)C(=O)N[C@@H](CCCCN)C(=O)N[C@@H](CCC(N)=O)C(=O)N[C@H](C(=O)N[C@@H](CC(C)C)C(=O)N[C@@H](C)C(=O)N[C@@H](CCC(N)=O)C(=O)N[C@H](C(N)=O)C(C)C)[C@@H](C)CC)[C@@H](C)CC)[C@@H](C)CC)C(C)C)C(C)C
B3: peptide of SEQ ID NO: 148 (peptide)
peptide: IVLSLDVPIGLK([AEEA-AEEA-γGlu-C18 diacid])QILLKQERQKK[Aib]REQAETNKRILERV-NH2
modifications: N-terminus assumed
SMILES: CC[C@H](C)[C@H](N)C(=O)N[C@H](C(=O)N[C@@H](CC(C)C)C(=O)N[C@@H](CO)C(=O)N[C@@H](CC(C)C)C(=O)N[C@@H](CC(=O)O)C(=O)N[C@H](C(=O)N1CCC[C@H]1C(=O)N[C@H](C(=O)NCC(=O)N[C@@H](CC(C)C)C(=O)N[C@@H](CCCCNC(=O)COCCOCCNC(=O)COCCOCCNC(=O)CC[C@H](NC(=O)CCCCCCCCCCCCCCCCC(=O)O)C(=O)O)C(=O)N[C@@H](CCC(N)=O)C(=O)N[C@H](C(=O)N[C@@H](CC(C)C)C(=O)N[C@@H](CC(C)C)C(=O)N[C@@H](CCCCN)C(=O)N[C@@H](CCC(N)=O)C(=O)N[C@@H](CCC(=O)O)C(=O)N[C@@H](CCCNC(=N)N)C(=O)N[C@@H](CCC(N)=O)C(=O)N[C@@H](CCCCN)C(=O)N[C@@H](CCCCN)C(=O)NC(C)(C)C(=O)N[C@@H](CCCNC(=N)N)C(=O)N[C@@H](CCC(=O)O)C(=O)N[C@@H](CCC(N)=O)C(=O)N[C@@H](C)C(=O)N[C@@H](CCC(=O)O)C(=O)N[C@H](C(=O)N[C@@H](CC(N)=O)C(=O)N[C@@H](CCCCN)C(=O)N[C@@H](CCCNC(=N)N)C(=O)N[C@H](C(=O)N[C@@H](CC(C)C)C(=O)N[C@@H](CCC(=O)O)C(=O)N[C@@H](CCCNC(=N)N)C(=O)N[C@H](C(N)=O)C(C)C)[C@@H](C)CC)[C@@H](C)O)[C@@H](C)CC)[C@@H](C)CC)C(C)C)C(C)C
B4: peptide of SEQ ID NO: 149 (peptide)
peptide: IVLSLD[dV]PIKLK([AEEA-AEEA-γGlu-C18 diacid])QILLKQERQKK[Aib]REQAETNKRILERV-NH2
modifications: N-terminus assumed
SMILES: CC[C@H](C)[C@H](N)C(=O)N[C@H](C(=O)N[C@@H](CC(C)C)C(=O)N[C@@H](CO)C(=O)N[C@@H](CC(C)C)C(=O)N[C@@H](CC(=O)O)C(=O)N[C@@H](C(=O)N1CCC[C@H]1C(=O)N[C@H](C(=O)N[C@@H](CCCCN)C(=O)N[C@@H](CC(C)C)C(=O)N[C@@H](CCCCNC(=O)COCCOCCNC(=O)COCCOCCNC(=O)CC[C@H](NC(=O)CCCCCCCCCCCCCCCCC(=O)O)C(=O)O)C(=O)N[C@@H](CCC(N)=O)C(=O)N[C@H](C(=O)N[C@@H](CC(C)C)C(=O)N[C@@H](CC(C)C)C(=O)N[C@@H](CCCCN)C(=O)N[C@@H](CCC(N)=O)C(=O)N[C@@H](CCC(=O)O)C(=O)N[C@@H](CCCNC(=N)N)C(=O)N[C@@H](CCC(N)=O)C(=O)N[C@@H](CCCCN)C(=O)N[C@@H](CCCCN)C(=O)NC(C)(C)C(=O)N[C@@H](CCCNC(=N)N)C(=O)N[C@@H](CCC(=O)O)C(=O)N[C@@H](CCC(N)=O)C(=O)N[C@@H](C)C(=O)N[C@@H](CCC(=O)O)C(=O)N[C@H](C(=O)N[C@@H](CC(N)=O)C(=O)N[C@@H](CCCCN)C(=O)N[C@@H](CCCNC(=N)N)C(=O)N[C@H](C(=O)N[C@@H](CC(C)C)C(=O)N[C@@H](CCC(=O)O)C(=O)N[C@@H](CCCNC(=N)N)C(=O)N[C@H](C(N)=O)C(C)C)[C@@H](C)CC)[C@@H](C)O)[C@@H](C)CC)[C@@H](C)CC)C(C)C)C(C)C
B5: peptide of SEQ ID NO: 150 (peptide)
peptide: IVLSLD[dV]PIGLK([AEEA-AEEA-γGlu-C18 diacid])QILLKQERQKK[Aib]RQQAETNKRILERV-NH2
modifications: N-terminus assumed
SMILES: CC[C@H](C)[C@H](N)C(=O)N[C@H](C(=O)N[C@@H](CC(C)C)C(=O)N[C@@H](CO)C(=O)N[C@@H](CC(C)C)C(=O)N[C@@H](CC(=O)O)C(=O)N[C@@H](C(=O)N1CCC[C@H]1C(=O)N[C@H](C(=O)NCC(=O)N[C@@H](CC(C)C)C(=O)N[C@@H](CCCCNC(=O)COCCOCCNC(=O)COCCOCCNC(=O)CC[C@H](NC(=O)CCCCCCCCCCCCCCCCC(=O)O)C(=O)O)C(=O)N[C@@H](CCC(N)=O)C(=O)N[C@H](C(=O)N[C@@H](CC(C)C)C(=O)N[C@@H](CC(C)C)C(=O)N[C@@H](CCCCN)C(=O)N[C@@H](CCC(N)=O)C(=O)N[C@@H](CCC(=O)O)C(=O)N[C@@H](CCCNC(=N)N)C(=O)N[C@@H](CCC(N)=O)C(=O)N[C@@H](CCCCN)C(=O)N[C@@H](CCCCN)C(=O)NC(C)(C)C(=O)N[C@@H](CCCNC(=N)N)C(=O)N[C@@H](CCC(N)=O)C(=O)N[C@@H](CCC(N)=O)C(=O)N[C@@H](C)C(=O)N[C@@H](CCC(=O)O)C(=O)N[C@H](C(=O)N[C@@H](CC(N)=O)C(=O)N[C@@H](CCCCN)C(=O)N[C@@H](CCCNC(=N)N)C(=O)N[C@H](C(=O)N[C@@H](CC(C)C)C(=O)N[C@@H](CCC(=O)O)C(=O)N[C@@H](CCCNC(=N)N)C(=O)N[C@H](C(N)=O)C(C)C)[C@@H](C)CC)[C@@H](C)O)[C@@H](C)CC)[C@@H](C)CC)C(C)C)C(C)C
B6: peptide of SEQ ID NO: 152 (peptide)
peptide: IVLSLDVPIKLK([AEEA-AEEA-γGlu-C18 diacid])QILLKQERQKK[Aib]REQAETNKRILERV-NH2
modifications: N-terminus assumed
SMILES: CC[C@H](C)[C@H](N)C(=O)N[C@H](C(=O)N[C@@H](CC(C)C)C(=O)N[C@@H](CO)C(=O)N[C@@H](CC(C)C)C(=O)N[C@@H](CC(=O)O)C(=O)N[C@H](C(=O)N1CCC[C@H]1C(=O)N[C@H](C(=O)N[C@@H](CCCCN)C(=O)N[C@@H](CC(C)C)C(=O)N[C@@H](CCCCNC(=O)COCCOCCNC(=O)COCCOCCNC(=O)CC[C@H](NC(=O)CCCCCCCCCCCCCCCCC(=O)O)C(=O)O)C(=O)N[C@@H](CCC(N)=O)C(=O)N[C@H](C(=O)N[C@@H](CC(C)C)C(=O)N[C@@H](CC(C)C)C(=O)N[C@@H](CCCCN)C(=O)N[C@@H](CCC(N)=O)C(=O)N[C@@H](CCC(=O)O)C(=O)N[C@@H](CCCNC(=N)N)C(=O)N[C@@H](CCC(N)=O)C(=O)N[C@@H](CCCCN)C(=O)N[C@@H](CCCCN)C(=O)NC(C)(C)C(=O)N[C@@H](CCCNC(=N)N)C(=O)N[C@@H](CCC(=O)O)C(=O)N[C@@H](CCC(N)=O)C(=O)N[C@@H](C)C(=O)N[C@@H](CCC(=O)O)C(=O)N[C@H](C(=O)N[C@@H](CC(N)=O)C(=O)N[C@@H](CCCCN)C(=O)N[C@@H](CCCNC(=N)N)C(=O)N[C@H](C(=O)N[C@@H](CC(C)C)C(=O)N[C@@H](CCC(=O)O)C(=O)N[C@@H](CCCNC(=N)N)C(=O)N[C@H](C(N)=O)C(C)C)[C@@H](C)CC)[C@@H](C)O)[C@@H](C)CC)[C@@H](C)CC)C(C)C)C(C)C

Target: T1, CRF1R receptor (anti-target) (UniProt P34998 24-415, limits assumed)
T1 sequence (looked up): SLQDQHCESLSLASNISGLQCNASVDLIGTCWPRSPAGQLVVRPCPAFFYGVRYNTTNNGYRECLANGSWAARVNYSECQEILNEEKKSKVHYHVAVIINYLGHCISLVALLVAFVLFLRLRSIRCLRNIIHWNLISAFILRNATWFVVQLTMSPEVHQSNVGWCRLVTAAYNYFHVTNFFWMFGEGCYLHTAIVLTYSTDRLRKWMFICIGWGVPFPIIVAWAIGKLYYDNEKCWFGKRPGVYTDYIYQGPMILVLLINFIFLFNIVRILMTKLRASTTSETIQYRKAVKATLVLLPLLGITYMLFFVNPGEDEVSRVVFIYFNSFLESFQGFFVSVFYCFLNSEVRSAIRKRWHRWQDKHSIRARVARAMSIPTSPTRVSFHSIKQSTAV
Assay: cell-based or functional assay

Row | Binder | EC50 [nM] 0% HSA (cAMP, HTRF) | Emax (%) (100% = Sauvagine at 100 nM)
1 | B1 | > 100 nM | 36.5%
2 | B2 | > 100 nM | -8.6%
3 | B3 | > 100 nM | 2.6%
4 | B4 | > 100 nM | 6.6%
5 | B5 | > 100 nM | 7.2%
6 | B6 | > 100 nM | 4.9%
